The supplement of paper PMC9112550, “Optimization of the antimicrobial peptide Bac7 by deep mutational scanning” (BMC Biology, 2022)

Test system: Escherichia coli TOP10
Test: shrunken log2 fold change of peptide-encoding DNA abundance (4.5 h post-induction vs induction); higher = less antimicrobial activity (less host growth inhibition)
Settings: time post-induction: 4.5 h; library: site-saturation at positions 5, 18, 19, 20
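Also: peptides expressed intracellularly from a pBAD plasmid library in pooled LB shake-flask culture, induced with 0.3% L-arabinose, DNA abundance read by NGS, three biological replicates, DESeq2 with apeglm shrinkage.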

Sequence	shrunken log2 fold change
RRIRGRPPRLPRPRPRPVTNPRP	0.735
RRIRGRPPRLPRPRPRPVTPPRP	1.24
RRIRGRPPRLPRPRPRPVTQPRP	0.445
RRIRGRPPRLPRPRPRPVTTPRP	1.21
RRIRGRPPRLPRPRPRPVVFPRP	0.56
RRIRGRPPRLPRPRPRPVVYPRP	0.268
RRIRGRPPRLPRPRPRPVWFPRP	0.239
RRIRGRPPRLPRPRPRPVWLPRP	0.649
RRIRGRPPRLPRPRPRPVYIPRP	-0.194
RRIRGRPPRLPRPRPRPVYMPRP	0.361
RRIRGRPPRLPRPRPRPVYQPRP	0.0322
RRIRGRPPRLPRPRPRPWAGPRP	0.188
RRIRGRPPRLPRPRPRPWATPRP	0.959
RRIRGRPPRLPRPRPRPWAYPRP	-0.151
RRIRGRPPRLPRPRPRPWCHPRP	-0.0582
RRIRGRPPRLPRPRPRPWDMPRP	-0.08
RRIRGRPPRLPRPRPRPWFSPRP	-0.246
RRIRGRPPRLPRPRPRPWHGPRP	-0.163
RRIRGRPPRLPRPRPRPWKHPRP	-0.161
RRIRGRPPRLPRPRPRPWLPPRP	-0.0942
RRIRGRPPRLPRPRPRPWMKPRP	0.0546
RRIRGRPPRLPRPRPRPWNDPRP	-0.222
RRIRGRPPRLPRPRPRPWNWPRP	0.232
RRIRGRPPRLPRPRPRPWQQPRP	0.0543
RRIRGRPPRLPRPRPRPWRYPRP	0.122

Sequence	shrunken log2 fold change
RRIRGRPPRLPRPRPRPWSCPRP	0.202
RRIRGRPPRLPRPRPRPWSHPRP	-0.155
RRIRGRPPRLPRPRPRPWSRPRP	-0.188
RRIRGRPPRLPRPRPRPWSYPRP	-0.157
RRIRGRPPRLPRPRPRPWVFPRP	0.758
RRIRGRPPRLPRPRPRPWVTPRP	0.0039
RRIRGRPPRLPRPRPRPWWFPRP	-0.03
RRIRGRPPRLPRPRPRPWWRPRP	0.626
RRIRGRPPRLPRPRPRPYAKPRP	-0.0213
RRIRGRPPRLPRPRPRPYEFPRP	-0.0878
RRIRGRPPRLPRPRPRPYFQPRP	-0.161
RRIRGRPPRLPRPRPRPYFVPRP	0.0122
RRIRGRPPRLPRPRPRPYGHPRP	0.323
RRIRGRPPRLPRPRPRPYGIPRP	-0.165
RRIRGRPPRLPRPRPRPYGNPRP	-0.102
RRIRGRPPRLPRPRPRPYHWPRP	-0.407
RRIRGRPPRLPRPRPRPYINPRP	-0.151
RRIRGRPPRLPRPRPRPYIVPRP	0.0237
RRIRGRPPRLPRPRPRPYIYPRP	-0.13
RRIRGRPPRLPRPRPRPYLRPRP	-0.0169
RRIRGRPPRLPRPRPRPYMMPRP	-0.232
RRIRGRPPRLPRPRPRPYMQPRP	-0.212
RRIRGRPPRLPRPRPRPYQAPRP	-0.119
RRIRGRPPRLPRPRPRPYQFPRP	-0.297
RRIRGRPPRLPRPRPRPYQIPRP	-0.118

Sequence	shrunken log2 fold change
RRIRGRPPRLPRPRPRPYRCPRP	-0.00655
RRIRGRPPRLPRPRPRPYRQPRP	-0.401
RRIRGRPPRLPRPRPRPYRSPRP	-0.113
RRIRGRPPRLPRPRPRPYRTPRP	-0.108
RRIRGRPPRLPRPRPRPYSCPRP	0.131
RRIRGRPPRLPRPRPRPYTEPRP	-0.0586
RRIRGRPPRLPRPRPRPYVDPRP	-0.0322
RRIRGRPPRLPRPRPRPYVIPRP	-0.0899
RRIRGRPPRLPRPRPRPYVQPRP	-0.122
RRIRGRPPRLPRPRPRPYWCPRP	-0.0844
RRIRGRPPRLPRPRPRPYWEPRP	-0.0842
RRIRGRPPRLPRPRPRPYWPPRP	0.0961
RRIRGRPPRLPRPRPRPYWWPRP	-0.0995
RRIRGRPPRLPRPRPRPYYKPRP	-0.607
RRIRHRPPRLPRPRPRPACIPRP	-0.132
RRIRHRPPRLPRPRPRPACMPRP	0.0463
RRIRHRPPRLPRPRPRPAEIPRP	0.000898
RRIRHRPPRLPRPRPRPAETPRP	-0.074
RRIRHRPPRLPRPRPRPAFKPRP	-0.0994
RRIRHRPPRLPRPRPRPAFMPRP	-0.193
RRIRHRPPRLPRPRPRPAGGPRP	-0.131
RRIRHRPPRLPRPRPRPAGSPRP	-0.0875
RRIRHRPPRLPRPRPRPAHFPRP	0.165
RRIRHRPPRLPRPRPRPAHNPRP	-0.366
RRIRHRPPRLPRPRPRPAHQPRP	0.0515

Sequence	shrunken log2 fold change
RRIRHRPPRLPRPRPRPAHTPRP	-0.199
RRIRHRPPRLPRPRPRPAIGPRP	-0.0264
RRIRHRPPRLPRPRPRPALSPRP	-0.257
RRIRHRPPRLPRPRPRPAMHPRP	0.0521
RRIRHRPPRLPRPRPRPANHPRP	-0.262
RRIRHRPPRLPRPRPRPANMPRP	-0.126
RRIRHRPPRLPRPRPRPAPQPRP	0.588
RRIRHRPPRLPRPRPRPAQAPRP	0.183
RRIRHRPPRLPRPRPRPAQFPRP	-0.0111
RRIRHRPPRLPRPRPRPARDPRP	0.147
RRIRHRPPRLPRPRPRPARHPRP	0.293
RRIRHRPPRLPRPRPRPARIPRP	0.0499
RRIRHRPPRLPRPRPRPASDPRP	-0.0278
RRIRHRPPRLPRPRPRPASQPRP	0.045
RRIRHRPPRLPRPRPRPASWPRP	0.305
RRIRHRPPRLPRPRPRPATPPRP	0.299
RRIRHRPPRLPRPRPRPATSPRP	-0.00994
RRIRHRPPRLPRPRPRPAWFPRP	0.211
RRIRHRPPRLPRPRPRPAWVPRP	0.15
RRIRHRPPRLPRPRPRPAYNPRP	-1.04
RRIRHRPPRLPRPRPRPCAIPRP	-0.303
RRIRHRPPRLPRPRPRPCAPPRP	0.0642
RRIRHRPPRLPRPRPRPCCTPRP	-0.181
RRIRHRPPRLPRPRPRPCCWPRP	0.015
RRIRHRPPRLPRPRPRPCDAPRP	-0.0305

Sequence	shrunken log2 fold change
RRIRHRPPRLPRPRPRPCDCPRP	-0.138
RRIRHRPPRLPRPRPRPCDTPRP	-0.214
RRIRHRPPRLPRPRPRPCEEPRP	0.0167
RRIRHRPPRLPRPRPRPCFNPRP	-0.588
RRIRHRPPRLPRPRPRPCGEPRP	-0.0851
RRIRHRPPRLPRPRPRPCGRPRP	-0.0197
RRIRHRPPRLPRPRPRPCGWPRP	0.353
RRIRHRPPRLPRPRPRPCISPRP	-0.13
RRIRHRPPRLPRPRPRPCKIPRP	-0.036
RRIRHRPPRLPRPRPRPCMSPRP	0.12
RRIRHRPPRLPRPRPRPCPAPRP	-0.231
RRIRHRPPRLPRPRPRPCPKPRP	0.03
RRIRHRPPRLPRPRPRPCSVPRP	-0.00861
RRIRHRPPRLPRPRPRPCYWPRP	-0.026
RRIRHRPPRLPRPRPRPDAEPRP	0.205
RRIRHRPPRLPRPRPRPDAPPRP	2.03
RRIRHRPPRLPRPRPRPDAQPRP	0.0391
RRIRHRPPRLPRPRPRPDCVPRP	-0.383
RRIRHRPPRLPRPRPRPDCWPRP	0.0871
RRIRHRPPRLPRPRPRPDEEPRP	-0.0946
RRIRHRPPRLPRPRPRPDFMPRP	-0.0635
RRIRHRPPRLPRPRPRPDGNPRP	-0.105
RRIRHRPPRLPRPRPRPDICPRP	-0.622
RRIRHRPPRLPRPRPRPDIFPRP	-0.223
RRIRHRPPRLPRPRPRPDIKPRP	-0.559

Sequence	shrunken log2 fold change
RRIRHRPPRLPRPRPRPDKFPRP	-0.16
RRIRHRPPRLPRPRPRPDKRPRP	-0.0145
RRIRHRPPRLPRPRPRPDLWPRP	0.0395
RRIRHRPPRLPRPRPRPDNQPRP	-0.0673
RRIRHRPPRLPRPRPRPDRPPRP	-0.184
RRIRHRPPRLPRPRPRPDRVPRP	-0.0183
RRIRHRPPRLPRPRPRPDSVPRP	-0.117
RRIRHRPPRLPRPRPRPDTFPRP	-1.19
RRIRHRPPRLPRPRPRPDTRPRP	-0.0709
RRIRHRPPRLPRPRPRPDTSPRP	-0.0188
RRIRHRPPRLPRPRPRPDVSPRP	-0.198
RRIRHRPPRLPRPRPRPEADPRP	-0.00192
RRIRHRPPRLPRPRPRPEAKPRP	-0.0228
RRIRHRPPRLPRPRPRPECCPRP	0.203
RRIRHRPPRLPRPRPRPEDAPRP	-0.0619
RRIRHRPPRLPRPRPRPEDDPRP	0.141
RRIRHRPPRLPRPRPRPEEAPRP	0.015
RRIRHRPPRLPRPRPRPEFTPRP	-0.0939
RRIRHRPPRLPRPRPRPEGCPRP	0.0614
RRIRHRPPRLPRPRPRPEHDPRP	-0.051
RRIRHRPPRLPRPRPRPEHPPRP	0.00839
RRIRHRPPRLPRPRPRPEHQPRP	-0.291
RRIRHRPPRLPRPRPRPEHWPRP	0.237
RRIRHRPPRLPRPRPRPEIKPRP	-0.264
RRIRHRPPRLPRPRPRPENKPRP	-0.639
